We go through one molecule from patent US20210107983A1 (Boehringer Ingelheim, published 2021).

Experiment [1] addresses T1, Fc-His-tagged human B7H6 ECD (human).
T1 construct: also called huB7H6-ECD-Fc-His; recombinant human B7H6 ECD
Put plainly: ELISA, plate coated with Fc-His-tagged human B7H6 ECD, anti-human IgG F(ab')2-peroxidase, TMB. (ELISA stands for enzyme-linked immunosorbent assay.)

The target in experiment [2] is T2, human B7H6 on HCT-15 cells (human, UniProt Q68D85 25-454).
T2 construct: whole, on cells; also called B7H6-positive HCT-15 cells
T2 sequence (looked up): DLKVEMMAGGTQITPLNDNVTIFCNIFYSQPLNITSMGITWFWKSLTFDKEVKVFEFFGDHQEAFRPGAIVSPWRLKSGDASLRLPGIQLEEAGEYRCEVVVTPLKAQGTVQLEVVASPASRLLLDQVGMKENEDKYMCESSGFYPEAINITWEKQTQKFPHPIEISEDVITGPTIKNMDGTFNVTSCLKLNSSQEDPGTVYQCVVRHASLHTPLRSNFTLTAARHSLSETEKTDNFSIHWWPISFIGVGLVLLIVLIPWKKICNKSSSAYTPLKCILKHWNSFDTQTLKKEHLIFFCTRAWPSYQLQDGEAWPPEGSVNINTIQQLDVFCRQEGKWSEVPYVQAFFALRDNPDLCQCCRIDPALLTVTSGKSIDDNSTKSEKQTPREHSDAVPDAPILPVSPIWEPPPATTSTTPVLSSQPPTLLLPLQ
Nature of the experiment: flow cytometry on HCT-15 cells, PE anti-human secondary antibody. The protocol: Binding of B7H6/CD3 binding proteins to HCT-15, a human (colo-rectal cancer) CRC cell line was tested by flow cytometry. In a previous experiment, it has been confirmed that HCT-15 cells expresses B7-H6 on the RNA levels as well as the protein level with approximately 8,000 B7-H6 receptors on the cell surface (data not shown). B7H6/CD3 binding proteins were produced, as described in Example 2. HCT-15 cells were stained with increasing concentrations of two-step purified B7H6/CD3 binding proteins in FACS buffer (PBS/0.5% BSA/0.05% sodium azide). Bound molecules were detected with PE-conjugated anti-human secondary antibody (Sigma-Aldrich, #P8047).
For orientation: Flow cytometry measures light scatter and fluorescence of single cells or particles in a stream.

Experiment [3] concerns the target T3, Fc-His-tagged human Ala-mutated B7H6 ECD (human).
T3 construct: also called huB7H6-Ala-ECD
Nature of the experiment: ELISA, plate coated with Fc-His-tagged human Ala-mutated B7H6 ECD, anti-human IgG F(ab')2-peroxidase, TMB. The procedure: To assess binding of B7H6/CD3 binding proteins to recombinant human Fc-His-tagged B7H6 ECD and human Fc-His-tagged Ala-mutated B7H6 extracellular proteins as described in Example 3, MediSorp™ plates (Nunc, 467320) were coated with […] recombinant proteins overnight at 4° C. The next day, plates were blocked with 0.5% bovine serum albumin (BSA) in phosphate buffered saline (PBS) for 1 hour at room temperature (RT). Subsequently plates were washed with […] containing 0.05% TWEEN®20 viscous liquid and B7H6/CD3 binding proteins were incubated at concentrations ranging from 0.00001 to 10 μg/ml. After an additional washing step, bound B7H6/CD3 binding proteins were detected by a peroxidase conjugated goat anti-human IgG F(ab′)₂-specific secondary antibody (Jackson Immunoresearch) and visualized by TMB substrate solution (Bender Med Systems).

The target in experiment [4] is T2, human B7H6 on HCT-15 cells. Nature of the experiment: cell-based or functional assay.

B1: B7H6#8/CD3#1 (bispecific antibody, human IgG1, kappa, lambda, L234A L235A)
chain 1: DIVMTQSPLSLPVTPGEPASISCRSSQSLLYNNRYNYLDWYLQKPGQSPEVLIYLGSNRASGVPDRFSGSGSGTDFTLKISRVEAEDFGVYYCMQTLQIPITFGQGTRLEIKRTVAAPSVFIFPPSDEQLKSGTASVVCLLNNFYPREAKVQWKVDNALQSGNSQESVTEQDSKDSTYSLSSTLTLSKADYEKHKVYACEVTHQGLSSPVTKSFNRGECGGGGSEGKSSGSGSESKSTEGKSSGSGSESKSTGGGGSQVQVVQSGAEVKKPGSSVKVSCKGSGDTLNSYGISWMRQAPGQGLEWMGGIIPIFDTTKYAQKFQGRVTITADKSTTTVYMELSSLRFEDTAVYYCARERGYRFSEDYYFYYGMDVWGQGTTVTVSSASTKGPSVFPLAPSSKSTSGGTAALGCLVKDYFPEPVTVSWNSGALTSGVHTFPAVLQSSGLYSLSSVVTVPSSSLGTQTYICNVNHKPSNTKVDKRVEPKSCDKTHTCPPCPAPEAAGGPSVFLFPPKPKDTLMISRTPEVTCVVVDVSHEDPEVKFNWYVDGVEVHNAKTKPREEQYNSTYRVVSVLTVLHQDWLNGKEYKCKVSNKALPAPIEKTISKAKGQPREPQVYTLPPSREEMTKNQVSLWCLVKGFYPSDIAVEWESNGQPENNYKTTPPVLDSDGSFFLYSKLTVDKSRWQQGNVFSCSVMHEALHNHYTQKSLSLSPG
chain 2: EAVVTQEPSLTVSPGGTVTLTCRSSTGAVTTSNYANWVQEKPGQLPRGLIGGTNKRAPWVPARFSGSLLGGKAALTLSGAQPEDEAEYFCALWYSNLWVFGGGTKLTVLGQPKAAPSVTLFPPSSEELQANKATLVCLISDFYPGAVKVAWKADGSPVNTGVETTTPSKQSNNKYAASSYLSLTPEQWKSHRSYSCQVTHEGSTVEKTVAPAECSGGGGSEGKSSGSGSESKSTEGKSSGSGSESKSTGGGGSEVQLVESGGGLVQPGGSLKLSCAASGFTFNTYAMNWVRQAPGKGLEWVARIRSKYNNYATYYADSVKDRFTISRDDSKNTAYLQMNNLKTEDTAVYYCVRHGNFGNSYVSWFAYWGQGTLVTVSAASTKGPSVFPLAPSSKSTSGGTAALGCLVKDYFPEPVTVSWNSGALTSGVHTFPAVLQSSGLYSLSSVVTVPSSSLGTQTYICNVNHKPSNTKVDKRVEPKSCDKTHTCPPCPAPEAAGGPSVFLFPPKPKDTLMISRTPEVTCVVVDVSHEDPEVKFNWYVDGVEVHNAKTKPREEQYNSTYRVVSVLTVLHQDWLNGKEYKCKVSNKALPAPIEKTISKAKGQPREPQVYTLPPSREEMTKNQVSLSCAVKGFYPSDIAVEWESNGQPENNYKTTPPVLDSDGSFFLVSKLTVDKSRWQQGNVFSCSVMHEALHNRFTQKSLSLSPG
notes: scFab-Fc heterodimer, one B7H6 chain and one CD3 chain
Consider B1, for which the EC50 (read off the curve) – broadly, the concentration needed to bring the measured effect to its halfway point – in experiment [1] is approximately 0.05 µg/mL; in experiment [2] it was approximately 0.4 nM. In addition, the binding result in experiment [3] is “no binding (tested: 10 µg/ml)”. Moreover, the “EC50 [nM], 72 hour cytotoxicity assay, non-stimulated T-cells (Donor #1) as effector cells, HCT-15 cells as target cells” value in experiment [4] amounted to 0.62 nM.
